Test results: patent US20220064329A1 (Novo Nordisk, published 2022)
Numbering of substitutions follows the chain as printed. Numbers in names are those of the source. One block for each binder: values may come before it.

Columns and labels:
[1] = target: T1, recombinant human activated Factor VII (FVIIa) (human, UniProt P08709 61-212; P08709 213-466, Gla domain: ten glutamate residues may be gamma-carboxylated); assay: cell-based or functional assay
T1 sequence 1: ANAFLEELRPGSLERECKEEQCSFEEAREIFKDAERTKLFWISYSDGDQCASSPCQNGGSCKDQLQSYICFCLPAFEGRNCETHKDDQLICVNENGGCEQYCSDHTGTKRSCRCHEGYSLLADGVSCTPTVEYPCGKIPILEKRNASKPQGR
T1 sequence 2: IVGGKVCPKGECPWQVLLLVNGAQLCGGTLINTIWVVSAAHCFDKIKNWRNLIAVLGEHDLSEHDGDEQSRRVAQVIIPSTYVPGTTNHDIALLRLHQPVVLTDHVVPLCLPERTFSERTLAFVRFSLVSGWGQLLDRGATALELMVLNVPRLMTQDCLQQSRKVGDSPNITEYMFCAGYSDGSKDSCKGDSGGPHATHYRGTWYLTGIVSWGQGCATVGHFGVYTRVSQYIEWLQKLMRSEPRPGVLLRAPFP

[2] = target: T2, recombinant human activated Factor VII (FVIIa) (human, UniProt P08709 61-212; P08709 213-466, ten glutamate residues of the Gla domain may be gamma-carboxylated); assay: BLI (Fortebio)
T2 construct: chains tethered by a disulfide bond; also called Factor VIIa; rFVIIa
T2 sequence 1: T1 sequence 1
T2 sequence 2: T1 sequence 2

[3] = target: T2, recombinant human activated Factor VII …; assay: cell-based or functional assay

AT inhibition (kinh %) [1]: 747% | TGT activity (% FVIIa) [1]: 128 % FVIIa
B1: mAb0013 (antibody, V domains shown)
VH: QIQLVQSGPELKKPGETVKISCKASGYTFTDYSIQWVKQAPGKGLKWMGWINTETGKPSYADDLKGRSAFSLETSGSTAYLQISNLKNEDMATYFCVRDDYYGREDYWGQGTTLTVSS
VL: DIVMTQSPSSLTVTAGEKVTVSCKSSQSLLNSGDQKNYLTWYQQKPGQPPKLLIYWASTRESGVPDRFTGSGSGTDFTLTISSVQAEDLAVYYCQNDFSYPYTFGGGTKLEIK

AT inhibition (kinh %) [1]: 23% | TGT activity (% FVIIa) [1]: 91 % FVIIa
B10: mAb7250 (antibody, V domains shown)
VH: EVQLVESGGGLVKPGGSLRLSCAASGFTFTSYSMSWVRQAPGKGLEWVSSISSRSSYICYADSVKGRFTISRDNAKNSLYLQMNSLRAEDTAVYYCAREGDTGSIGGDYMDVWGKGTTVTVSS
VL: not shown

AT inhibition (kinh %) [3]: 105% | TGT activity (%% FVIIa) [3]: 102%
B11: mAb0137(OA) (antibody, human IgG4 S228P, kappa)
heavy: not shown
light: EIVLTQSPATLSLSPGERATLSCRASQGISDYLHWYQQKPGEAPRLLIKYTSQPATGIPARFSGSGSGTDFTLTISSLEPEDVGVYYCQNGHSFPLTFGAGTKLELKRTVAAPSVFIFPPSDEQLKSGTASVVCLLNNFYPREAKVQWKVDNALQSGNSQESVTEQDSKDSTYSLSSTLTLSKADYEKHKVYACEVTHQGLSSPVTKSFNRGEC
chain: VESKYGPPCPPCPAPEFLGGPSVFLFPPKPKDTLMISRTPEVTCVVVDVSQEDPEVQFNWYVDGVEVHNAKTKPREEQFNSTYRVVSVLTVLHQDWLNGKEYKCKVSNKGLPSSIEKTISKAKGQPREPQVYTLPPSQEEMTKNQVSLTCLVKGFYPSDIAVEWESNGQPENNYKTTPPVLDSDGSFLLYSKLTVDKSRWQEGNVFSCSVMHEALHNHYTQKSLSLSLGK

AT inhibition (kinh %) [3]: 110% | TGT activity (%% FVIIa) [3]: 100%
B12: mAb0139(OA) (antibody, human IgG4 S228P, kappa)
heavy: not shown
light: B11 light
chain: B11 chain

The next lines start with the binder.

B2: VH SEQ ID NO 650 / VL SEQ ID NO 462 (antibody, IgG4, V domains shown)
VH: QVQLQESGPGLVKPSQTLSLTCTVSGYSISSDSAWSWIRQPPGKKLEWIGYIQYSGSTNYNPSLKSRVTISRDTSKNQFSLKLSSVTAADTAVYYCARSVNYYGNSFAVGPWGQGTLVTVSS
VL: EIVLTQSPATLSLSPGERATLSCRASQGVSDYLHWYQQKPGQAPRLLIKYASQPATGIPARFSGSGSGTDFTLTISSLEPEDFAVYYCQNGHSFPLTFGAGTKLEIK
notes: humanized 11F2; IgG4 S228P/kappa
Kd [2]: 1.6 nM

B3: VH SEQ ID NO 514 / VL SEQ ID NO 326 (antibody, IgG4, V domains shown)
VH: B2 VH with K13E, Q16D, T23A, S30T, I70M, A89L, P111Y
VL: B2 VL with V29I, Q42E, A51T, A84G, I106L
notes: as for B2
Kd [2]: 0.75 nM

B4: VH SEQ ID NO 514 / VL SEQ ID NO 342 (antibody, IgG4, V domains shown)
VH: B2 VH with K13E, Q16D, T23A, S30T, I70M, A89L, P111Y
VL: B2 VL with V29I, A51T, T69R, I106L
notes: as for B2
Kd [2]: 1.3 nM

B5: VH SEQ ID NO 650 / VL SEQ ID NO 502 (antibody, IgG4, V domains shown)
VH: B2 VH
VL: B2 VL with A51T, A100Q
notes: as for B2
Kd [2]: 1.3 nM

B6: VH SEQ ID NO 650 / VL SEQ ID NO 486 (antibody, IgG4, V domains shown)
VH: B2 VH
VL: B2 VL with A84G, A100Q
notes: as for B2
Kd [2]: 1.3 nM

B7: VH SEQ ID NO 650 / VL SEQ ID NO 494 (antibody, IgG4, V domains shown)
VH: B2 VH
VL: B2 VL with F83V, A100Q
notes: as for B2
Kd [2]: 1.6 nM

B8: VH SEQ ID NO 650 / VL SEQ ID NO 478 (antibody, IgG4, V domains shown)
VH: B2 VH
VL: B2 VL with N90Q, A100Q
notes: as for B2
Kd [2]: 3 nM

B9: VH SEQ ID NO 650 / VL SEQ ID NO 470 (antibody, IgG4, V domains shown)
VH: B2 VH
VL: B2 VL with A100Q
notes: as for B2
Kd [2]: 1.6 nM
